Reference: PMC8782670, “Production and Characterization of RNA Aptamers Specific for Amyloid Fibril Epitopes”

Biological target: beta2-microglobulin, monomer at pH 3.6 (biotinylated, partially folded) (human, UniProt P61769 21-119)
Assay: SPR; pH 3.6, 250 mM NaCl; apparent, 1:1 fit; SPR: Buffer A pH 3.6, 250 mM NaCl, 25 C, 0.5 uM RNA; dot blot: Buffer A pH 7.0, 1 M NaCl, 10 ug/ml BSA and yeast tRNA, 21 C (Buffer A composition not given)
Conditions: protein: recombinant; tags: biotin; interrupted stem-loop (Mfold)

Sequence of beta2-microglobulin, monomer at pH 3.6 (biotinylated, partially folded) (P61769 21-119): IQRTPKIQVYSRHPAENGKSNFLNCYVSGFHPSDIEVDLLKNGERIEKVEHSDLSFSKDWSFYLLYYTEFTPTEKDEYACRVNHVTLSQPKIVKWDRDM

B1: M-2 (structured_RNA)
RNA: GGGCCAAGCUUGCAUGCCUGCAGUUGGUUACGCGUACAGUGAAACUCGGAAAGUUGAAGGGCCAAAUGGGAACGGUACCGAGCUCAGGUUCCC
Work on B1 yielded a Kd of about 10 nM.
